Publication PMC9680129, “SARS-CoV-2 accessory protein 7b forms homotetramers in detergent” (Virology Journal, 2022)
“And” between values parts separate entries of the source, which are not always exact repeats. Equal values may be shown once.

Tests used:
[1] = biological target: transmembrane domain of p7b (p7b-TM) (SARS-CoV); assay: AUC
[2] = biological target: transmembrane domain of p7b (p7b-TM) (SARS-CoV); assay: SDS-PAGE
[3] = biological target: transmembrane domain of p7b (p7b-TM) (SARS-CoV); assay: AUC; remark: listed apart in the source
AUC = biological target: the molecule itself; assay: AUC
SDS-PAGE = biological target: the molecule itself; assay: SDS-PAGE

Molecule	stoichiometry N [1]	stoichiometry N [2]	stoichiometry N [3]	stoichiometry N (AUC)	stoichiometry N (SDS-PAGE)
transmembrane domain of p7b (p7b-TM) (domain or fragment)	2	2	4		
MIELSLIDFYLCFLAFLLFLVLIMLIIFWFSLELQDHNETCHA (natural protein, also called SARS-2 p7b; SARS-2 7b) [SARS-CoV-2 accessory protein 7b]				4	2
MNELTLIDFYLCFLAFLLFLVLIMLIIFWFSLEIQDLEEPCTKV (natural protein, also called SARS p7b; SARS 7b) [SARS-CoV accessory protein 7b]				4 and 2	
